The values below come from the supplement of paper PMC12042874.

± gives the uncertainty stated by the source.

One series can be described thus: amyloid nucleation score (Sup35N fusion, yeast selection) (log enrichment); library NNK1; higher = more nucleation; inactive = no reads after selection. Summed up: (§1)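 Growth for 7 days at 30°C on medium lacking adenine and uracil followed a 24-hour induction with 100 μM copper sulfate of psi-negative yeast expressing peptides of 20 random codons fused to Sup35N. Input and output plasmid inserts were sequenced with Illumina, and sequences with under 100 input reads were excluded. Nucleation score is the DiMSum log enrichment of output over input reads, centred on the mode score of non-aggregating sequences.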
The substance AAAFYWLN registered an amyloid nucleation score of -1.2 ± 1.3.
With AAGRMIRIMVTGVRLDKDKD, the amyloid nucleation score is -0.257 ± 1.7.
Substance AAKRM showed an amyloid nucleation score of 1.11 ± 0.52.
With AALSC, the amyloid nucleation score came out at 0.844 ± 0.46.
AANSPELVGFSGGPKGCSRG: the amyloid nucleation score was -0.137 ± 0.71.
Take AARELKIVTRVMHFDADREA: the amyloid nucleation score was determined as 0.103 ± 0.43.
Still for that read-out and setting: for ACDVNSCVHCMSTVKFFPRP the value was 4.2 ± 0.11; for ACETWVVAIDMVSRSPCRCC, 0.113 ± 0.97.
ACHRTWKWVLRLRLLMRNNL: the amyloid nucleation score was -0.712 ± 0.8.
In turn, ACLATNCVSFANFASCCWGW displayed an amyloid nucleation score of 7.154 ± 0.059.
Consider ACMRCFGNICSLWSVKGN, for which the amyloid nucleation score was 7.417 ± 0.052.
On the same count and under the same terms, for ACYRATNMSCRRGHKLAGGF the value was “inactive”; for ADEVMKRRQLLINIVEYFMK, 0.2 ± 0.38; for ADKTGGPVTNITFLAWPWWG, 3.95 ± 0.13.
On to ADSHYSDVGGYWMNSSLCK, for which the amyloid nucleation score is 1.31 ± 0.8.
As for ADTCPFCDHWTQSSNRWQEL, the amyloid nucleation score was determined as 0.692 ± 0.41.
Regarding ADVEVC, the amyloid nucleation score is -0.005 ± 0.56.
Turning to AERVCTFIL, the amyloid nucleation score was -1.25 ± 1.1.
AESWCAGSKIIHSIGWSKDR came in with an amyloid nucleation score of 0.589 ± 0.54.
AFGMSLGG: the amyloid nucleation score came out at 0.225 ± 0.65.
For AFRRNSPVSWSRR, the amyloid nucleation score is 0.37 ± 0.35.
Substance AFSSVEFRLDVNVFPEWVVL displayed an amyloid nucleation score of 3.9 ± 0.12.
In turn, AGAVLLNVMLCARLQRSEYY gave an amyloid nucleation score of 2.17 ± 0.14.
On the same count and under the same terms, for AGKHLGNNIRYILVYGESFR the value was -1.09 ± 0.85; for AGMDVDSLYNRYGYGLEVG, -0.512 ± 0.81; for AGMTFRFLHEVSSSQSN, 3.06 ± 0.13.
On to AGRSWSCMLVTVWSRTRVPL, for which the amyloid nucleation score was 0.351 ± 0.6.
As to AGRTILKIILQVLALLAPYK, the amyloid nucleation score is -0.309 ± 1.4.
On to AGSLWFIWGLLSALN, for which the amyloid nucleation score is -0.893 ± 0.92.
AGVIDT: the amyloid nucleation score was found to be 0.171 ± 0.79.
As for AGYVWAKSSKDVKFYVLDM, the amyloid nucleation score worked out at 2.85 ± 0.17.
For the substance AHFIFCKTFTLCLLLFCKLT, the amyloid nucleation score turned out to be 0.057 ± 0.83.
Same read-out and setting: for AHGMYAEGVTWSALVSSRCE the value was 2.56 ± 0.11.

A short description of another series: amyloid nucleation score (Sup35N fusion, yeast selection) (log enrichment); library NNK2; higher = more nucleation; inactive = no reads after selection. Summed up: as §1
As to YNMMLSVWDSYVLLVECVME, the amyloid nucleation score was -0.801 ± 0.31.
Still for that read-out and setting: for YNPNCPCICS the value was 6.823 ± 0.026.
For the substance YNQTVCDFLGKRLWGDVWRS, the amyloid nucleation score stood at 0.26 ± 0.36.
Regarding YNVDDCSHRDRFIDNRDSEC, the amyloid nucleation score result is “inactive”.
Regarding YNVDTVYLRGSLLRSYDWCF, the amyloid nucleation score was -2.32 ± 1.1.
With YNWHMSHFYDLGP, the amyloid nucleation score came to 4.99 ± 0.099.
YNYASYLVHIALLFLSYIRR gave an amyloid nucleation score of 0.236 ± 1.1.
YNYLLLSMVPSSILSRSYVQ gave an amyloid nucleation score of -0.161 ± 1.1.
In turn, YPCKSDF yielded an amyloid nucleation score of -1.66 ± 0.45.
YPQGVGSDLTS registered an amyloid nucleation score of 0.953 ± 0.19.
The substance YPVTYQLCILICTGYADKWR showed an amyloid nucleation score of -1.26 ± 0.64.
YQIAWI: the amyloid nucleation score is -0.719 ± 0.46.
On to YQLIGFTKVIRFHSVELIEP, for which the amyloid nucleation score result is “inactive”.
On to YRAGLGALEGSVLHAGKW, for which the amyloid nucleation score entry is “inactive”.
On to YRCVDYKGIEYLLYREMLTT, for which the amyloid nucleation score amounted to 3.93 ± 0.046.
Still for that read-out and setting: for YRDVQNN the value was “inactive”.
As for YRGINGTTGFQLWAPA, the amyloid nucleation score result is “inactive”.
Regarding YRGLTSLYLFNQV, the amyloid nucleation score is -0.08 ± 0.23.
For the substance YRKHRLLH, the amyloid nucleation score is -0.893 ± 0.76.
On to YRNVPRRMYRCVGISWS, for which the amyloid nucleation score is 1.13 ± 0.11.
As to YRPQATGLGSRGRR, the amyloid nucleation score was 0.81 ± 0.43.
Turning to YRYAASVPKCNTGSRDVAQT, the amyloid nucleation score was found to be 0.942 ± 0.35.
As for YSCQFFCSVLLCLYVSHITN, the amyloid nucleation score entry was “inactive”.
As for YSDKHM, the amyloid nucleation score was -1.27 ± 0.64.
The same measure, in the same setting: in the case of YSGDRDTVLYHCTRVGAESV it was 0.109 ± 0.63.
Turning to YSGKCMEDVRGQMVGGLELV, the amyloid nucleation score was 0.405 ± 0.22.
The substance YSHGEVCCWSCVMWVKHFMR registered an amyloid nucleation score of 1.47 ± 0.33.
The substance YSKAAIFMESHFLASGNHKA had an amyloid nucleation score of 4.67 ± 0.1.
As for YSKNWYWCTDYARANTLYHG, the amyloid nucleation score was -1.14 ± 1.1.
Same read-out and setting: for YSLLLTIKPTTSWRCVSDGH the value was 2.27 ± 0.23.
Still for that read-out and setting: in the case of YSLNWVQWEWELVCKWQGSL it was 0.143 ± 0.35; in that of YSNANGRTRVWGPRERKKDQ, -0.004 ± 0.65; in that of YSSYYHNFFRW, -0.277 ± 0.28.
On the same count and under the same terms, for YSVLFL the value was -0.722 ± 0.54; for YSWKFFCRWNEQD, 1.04 ± 0.59; for YSYTTVFNIASNTTNELATC, -0.375 ± 0.2.
Substance YTCRYRFTLNQTSSRRFSFW returned an amyloid nucleation score of 1.35 ± 0.13.
For YTGFWFIFTKGHTE, the amyloid nucleation score entry was “inactive”.
YTPHYLQCRLFCIPLRLNRS returned an amyloid nucleation score of -1.09 ± 0.49.
Substance YTVLWRCTFTKARVFGCVSL had an amyloid nucleation score of 0.414 ± 0.51.
The substance YVCVYTDF yielded an amyloid nucleation score of -1.38 ± 0.55.
YVDLKVACILYPYFSGTRQH: the amyloid nucleation score amounted to 4.96 ± 0.078.
YVDWAG showed an amyloid nucleation score of -1.56 ± 0.62.
For YVGSFVGSGIVLLNNSAVRH, the amyloid nucleation score was determined as 3.4 ± 0.14.
Consider YVIQMYLSEATGCYVFTYFF, for which the amyloid nucleation score was determined as 0.368 ± 0.33.
YVKVRWCGTSPCNEFLRSSY returned an amyloid nucleation score of 0.429 ± 0.66.
As for YVLKVVIRRLRRSCVSCTWH, the amyloid nucleation score is -0.109 ± 0.25.
On the same count and under the same terms, for YVSECVANA the value was “inactive”; for YVSWCCGRFISYPVC, 0.321 ± 0.19; for YVTPKDDSDAVWGLTLMEMS, 0.292 ± 0.39.
Consider YVVGDMTFWS, for which the amyloid nucleation score was -0.297 ± 1.1.
YVVYMVFGR displayed an amyloid nucleation score of 6.323 ± 0.055.
For YVYTLGI, the amyloid nucleation score is -0.337 ± 1.1.
YWEDNWAPNIQDLWQRRRCG: the amyloid nucleation score was 0.743 ± 0.81.
YWTPISFVY had an amyloid nucleation score of -1.09 ± 0.64.
Same read-out and setting: for YWTPYCIVIH the value was -0.965 ± 0.78; for YYCFHLKEYCRWRSANPHFK, -0.073 ± 1; for YYEIIWYTFQEKLSGCSSCS, -2.02 ± 0.75.
Take YYGALWRYAGMSG: the amyloid nucleation score was -0.472 ± 0.3.
Take YYGRSSLRNRMDVSDVQYPG: the amyloid nucleation score was -0.67 ± 1.1.
Substance YYSLY had an amyloid nucleation score of -0.904 ± 0.36.
Turning to YYSMGSTCGILDQDSLNVDQ, the amyloid nucleation score is -1.34 ± 0.39.
YYSPYN: the amyloid nucleation score result was “inactive”.
YYSSLTYCMLQWYSLFWWGH showed an amyloid nucleation score of 0.658 ± 0.51.
YYSWFSVYSIIILHNQQFRL: the amyloid nucleation score result is “inactive”.
Substance YYVERCNGTMVRNFLGATLV gave an amyloid nucleation score of -0.968 ± 0.5.
As to YYVLWSGVGIVMDSAYDTIC, the amyloid nucleation score was -0.017 ± 1.
On to YYVTNSGSWLDACHGLYKTG, for which the amyloid nucleation score result was “inactive”.
For the substance YYVVLGSSM, the amyloid nucleation score was -0.018 ± 0.42.
As to YYYIRCTAVK, the amyloid nucleation score is -0.495 ± 0.65.
Regarding YYYTLLSLHHMFCVTYELSG, the amyloid nucleation score is 5.443 ± 0.035.
